Changes are numbered by the printed parent chain.
Columns and labels:
DgoR R71C = target: T1, DgoR R71C (Escherichia coli BW, UniProt P31460 1-229, R71C); test: EMSA; no effector; apparent Kd, Hill fit; 10 nM DNA, 50 mM Tris pH 8.5, 10 mM MgCl2, 265 mM NaCl, 1 mM PMSF, 12% glycerol, 2 mM DTT, 1 ug herring sperm DNA per 20 uL, 27 C 30 min; effector pre-incubation 37 C 20 min; 8% native PAGE 0.5x TBE; settings: protein: recombinant; tags: C-terminal 6xHis; chain copies: 2; label: 5'-Cy5 on strand 1; blunt
T1 sequence: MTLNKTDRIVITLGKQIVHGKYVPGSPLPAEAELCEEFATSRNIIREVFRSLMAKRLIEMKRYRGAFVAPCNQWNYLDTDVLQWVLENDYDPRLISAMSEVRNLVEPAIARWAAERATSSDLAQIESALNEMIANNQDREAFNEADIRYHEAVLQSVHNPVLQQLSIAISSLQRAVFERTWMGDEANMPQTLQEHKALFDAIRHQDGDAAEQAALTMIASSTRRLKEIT

DgoR A152E = target: T2, DgoR A152E (Escherichia coli BW, UniProt P31460 1-229, A152E); test: as above; settings: protein: recombinant; tags: C-terminal 6xHis; chain copies: 2; label: 5'-Cy5 on strand 1; blunt
T2 sequence: T1 sequence with C71R, A152E

B1: dgo promoter probe GA149/GA150 (dsDNA)
DNA 1: GTGATCTAAATTGTAGTACAACAATATAAGTTTGTACTACATTACACGCACG
DNA 2: CGTGCGTGTAATGTAGTACAAACTTATATTGTTGTACTACAATTTAGATCAC
- Kd (DgoR R71C): 570 ± 16 nM
- Kd (DgoR A152E): 1940 ± 90 nM
